According to patent CN115232213A (HEFEI TIANGANG IMMUNOLOGY PHARMACEUTICAL CO LTD, dated 2022):

Target: T1, TROP2蛋白 (TROP2 protein, SEQ ID NO:27) expressed on transduced cells (human, UniProt P09758 27-323)
T1 construct: also called CHO-K1-TROP2细胞; A375-TROP2细胞
T1 sequence: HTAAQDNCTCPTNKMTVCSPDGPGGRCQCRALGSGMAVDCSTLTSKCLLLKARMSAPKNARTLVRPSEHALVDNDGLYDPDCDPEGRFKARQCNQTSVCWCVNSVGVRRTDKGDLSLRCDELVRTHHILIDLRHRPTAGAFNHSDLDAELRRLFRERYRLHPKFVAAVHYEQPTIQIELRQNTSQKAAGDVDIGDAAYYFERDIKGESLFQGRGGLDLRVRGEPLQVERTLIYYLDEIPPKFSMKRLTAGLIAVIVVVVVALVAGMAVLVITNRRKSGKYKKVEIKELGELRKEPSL
Assay: flow cytometry on CHO-K1-TROP2 cells, Alexa-647 rat anti-human Fc detection

B1: CD3×TROP2双特异性抗体 (CD3×TROP2 bispecific antibody) (bispecific antibody, human IgG1, kappa, L234A L235A)
chain: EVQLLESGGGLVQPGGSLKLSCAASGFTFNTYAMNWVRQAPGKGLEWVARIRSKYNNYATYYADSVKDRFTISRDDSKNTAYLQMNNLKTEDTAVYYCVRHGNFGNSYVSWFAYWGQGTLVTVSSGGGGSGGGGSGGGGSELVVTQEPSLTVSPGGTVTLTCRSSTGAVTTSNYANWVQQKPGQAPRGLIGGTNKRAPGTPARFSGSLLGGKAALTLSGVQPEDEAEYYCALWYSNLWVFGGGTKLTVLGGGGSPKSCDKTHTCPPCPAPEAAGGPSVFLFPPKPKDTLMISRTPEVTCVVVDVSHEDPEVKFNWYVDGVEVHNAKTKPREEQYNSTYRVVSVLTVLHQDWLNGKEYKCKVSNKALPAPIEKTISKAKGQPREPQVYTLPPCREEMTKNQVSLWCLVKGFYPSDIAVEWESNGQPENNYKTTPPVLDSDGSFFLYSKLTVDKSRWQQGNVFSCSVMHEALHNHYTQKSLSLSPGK
heavy: QVQLQQSGSELKKPGASVKVSCKASGYTFTNYGMNWVKQAPGQGLKWMGWINTYTGEPTYTDDFKGRFAFSLDTSVSTAYLQISSLKADDTAVYFCARGGFGSSYWYFDVWGQGSLVTVSSASTKGPSVFPLAPSSKSTSGGTAALGCLVKDYFPEPVTVSWNSGALTSGVHTFPAVLQSSGLYSLSSVVTVPSSSLGTQTYICNVNHKPSNTKVDKKVEPKSCDKTHTCPPCPAPEAAGGPSVFLFPPKPKDTLMISRTPEVTCVVVDVSHEDPEVKFNWYVDGVEVHNAKTKPREEQYNSTYRVVSVLTVLHQDWLNGKEYKCKVSNKALPAPIEKTISKAKGQPREPQVCTLPPSREEMTKNQVSLSCAVKGFYPSDIAVEWESNGQPENNYKTTPPVLDSDGSFFLVSKLTVDKSRWQQGNVFSCSVMHEALHNHYTQKSLSLSPGK
light: DIQLTQSPSSLSASVGDRVSITCKASQDVSIAVAWYQQKPGKAPKLLIYSASYRYTGVPDRFSGSGSGTDFTLTISSLQPEDFAVYYCQQHYITPLTFGAGTKVEIKRTVAAPSVFIFPPSDEQLKSGTASVVCLLNNFYPREAKVQWKVDNALQSGNSQESVTEQDSKDSTYSLSSTLTLSKADYEKHKVYACEVTHQGLSSPVTKSFNRGEC
notes: Fc carries L234A/L235A; also called CD3×TROP2重组双特异抗体; CD3×TROP2抗体
- binding result: binds
